Publication PMC5929487
“And” between values parts separate entries of the source, which are not always exact repeats. Equal values may be shown once.

Assays:
[1] = biological target: recombinant human catalase (human) (UniProt P04040); assay: native gel or EMSA
[2] = biological target: recombinant human catalase (human) (UniProt P04040); assay: SEC
[3] = biological target: epidermal growth factor receptor (rat lung) (rat (endogenous in lung tissue)); assay: SDS-PAGE and Western blot of SDS-resistant dimer
[4] = biological target: epidermal growth factor receptor (ovine pulmonary artery smooth muscle cells) (ovine (endogenous in PASMC)); assay: SDS-PAGE and Western blot of SDS-resistant dimer

## recombinant human catalase (from UniProt P04040 1-527) (enzyme)
[1]
  stoichiometry N: 4
[2]
  stoichiometry N: 4 and 3 and 2

## epidermal growth factor receptor (rat lung)
[3]
  stoichiometry N: 2

## epidermal growth factor receptor (ovine pulmonary artery smooth muscle cells)
[4]
  stoichiometry N: 2
